Assay results published in US11339383B2, “G proteins” (HEPTARES THERAPEUTICS LIMITED, priority 2016, dated 2022).
Numbering of substitutions follows the chain as printed. Names and notes keep the numbering of the source.

B1: Mini Gs164: A249D and switch III deletion (protein)
chain: MGHHHHHHANKKIEKQLQKDKQVYRATHRLLLLGAGESGKSTIVKQMRILHGGGGGETKFQVDKVNFHMFDVGGQRDERRKWIQCFNDVTAIIFVVDSSSYNRLQEALNLFKSIWNNRWLRTISVILFLNKQDLLAEKVLAGKSKIEDYFPEFARYTTPEDATPEPGEDPRVTRAKYFIRDEFLRISTASGDGRHYCYPHFTCAVDTENIRRVFNDCRDIIQRMHLRQYELL
modifications: MINI GS164
notes: A249D and switch III deletion
B2: Mini Gs165: A249D-S252D-SIII (protein)
chain: B1 chain with S100D
modifications: MINI GS165
notes: A249D-S252D-SIII
B3: Mini Gs183: G49D-E50N-A249D-S252D-SIII-L272D (protein)
chain: B1 chain with G36D, E37N, S100D, L110D
modifications: MINI GS183
notes: G49D-E50N-A249D-S252D-SIII-L272D
B4: Mini Gs169: A249D-S252D-SIII- (mutation list truncated in table) (protein)
chain: B1 chain with S100D, L110D
modifications: MINI GS169
B5: Mini Gs199: mini Gs, Gly8 linker, switch III deleted, G49D E50N A249D S252D L272D (protein)
chain: MGHHHHHHANKKIEKQLQKDKQVYRATHRLLLLGADNSGKSTIVKQMRILHGGGGGGGGTSGIFETKFQVDKVNFHMFDVGGQRDERRKWIQCFNDVTAIIFVVDSSDYNRLQEALNDFKSIWNNRWLRTISVILFLNKQDLLAEKVLAGKSKIEDYFPEFARYTTPEDATPEPGEDPRVTRAKYFIRDEFLRISTASGDGRHYCYPHFTCAVDTENIRRVFNDCRDIIQRMHLRQYELL
modifications: MINI GS199
notes: mini Gs, Gly8 linker, switch III deleted, G49D E50N A249D S252D L272D
B6: Mini Gs352: mini Gs199 with L63Y-I372A (protein)
chain: B5 chain with L50Y, I218A
modifications: MINI GS352
notes: mini Gs199 with L63Y-I372A
B7: Mini Gs340: mini Gs199 with I372A (protein)
chain: B5 chain with I218A
modifications: MINI GS340
notes: mini Gs199 with I372A
B8: Mini Gs350: mini Gs199 with L63Y (protein)
chain: B5 chain with L50Y
modifications: MINI GS350
notes: mini Gs199 with L63Y
B9: Mini GS303: mini Gs199 with V375I (protein)
chain: B5 chain with V221I
modifications: MINI GS303
notes: mini Gs199 with V375I
B10: Mini Gs254: mini Gs199 with M60A (protein)
chain: B5 chain with M47A
modifications: MINI GS254
notes: mini Gs199 with M60A
B11: Mini Gs345: mini Gs199 with I372A-V375I; detergent stabilised construct (protein)
chain: B5 chain with I218A, V221I
modifications: MINI GS345
notes: mini Gs199 with I372A-V375I; detergent stabilised construct
B12: Gαs: purified non-lipidated Gαs subunit (protein, UniProt P63092 2-394, looked up)
Guanine nucleotide-binding …: GCLGNSKTEDQRNEEKAQREANKKIEKQLQKDKQVYRATHRLLLLGAGESGKSTIVKQMRILHVNGFNGEGGEEDPQAARSNSDGEKATKVQDIKNNLKEAIETIVAAMSNLVPPVELANPENQFRVDYILSVMNVPDFDFPPEFYEHAKALWEDEGVRACYERSNEYQLIDCAQYFLDKIDVIKQADYVPSDQDLLRCRVLTSGIFETKFQVDKVNFHMFDVGGQRDERRKWIQCFNDVTAIIFVVASSSYNMVIREDNQTNRLQEALNLFKSIWNNRWLRTISVILFLNKQDLLAEKVLAGKSKIEDYFPEFARYTTPEDATPEPGEDPRVTRAKYFIRDEFLRISTASGDGRHYCYPHFTCAVDTENIRRVFNDCRDIIQRMHLRQYELL
modifications: non-lipidated
notes: purified non-lipidated Gαs subunit
B13: Mini Gs162: mini Gs161 with A249D (protein)
chain: MGHHHHHHANKKIEKQLQKDKQVYRATHRLLLLGAGESGKSTIVKQMRILHGGGGGETKFQVDKVNFHMFDVGGQRDERRKWIQCFNDVTAIIFVVDSSSYNMVIREDNQTNRLQEALNLFKSIWNNRWLRTISVILFLNKQDLLAEKVLAGKSKIEDYFPEFARYTTPEDATPEPGEDPRVTRAKYFIRDEFLRISTASGDGRHYCYPHFTCAVDTENIRRVFNDCRDIIQRMHLRQYELL
modifications: MINI GS162
notes: mini Gs161 with A249D
B14: Mini-Gi146: mini-Gi1 construct 46: N-terminus re-inserted, D249 back to Leu, G217D; SEQ ID NO:110 (protein)
chain: MGHHHHHHENLYFQGTLSAEDKAAVERSKMIDRNLREDGEKAAREVKLLLLGADNSGKSTIVKQMKIIHGGGGGGGGTTGIVETHFTFKDLHFKMFDVGGQRSERKKWIHCFEDVAAIIFCVDLSDYNRMHESMKLFDSICNNKWFTDTSIILFLNKKDLFEEKIKKSPLTICYQEYAGSNTYEEAAAYIQCQFEDLNKRKDTKEIYTHFTCATDTKNAQFIFDAVTDVIIKNNLKDCGLF
modifications: Mini-Gi146
B15: Mini Gs399: mini Gs393 with N-terminal residues 6-25 replaced and L272D reversed; binds Gβγ (protein)
chain: MGHHHHHHENLYFQGNSKTEDQRNEEKAQREANKKIEKQLQKDKQVYRATHRLLLLGADNSGKSTIVKQMRILHGGSGGSGGTSGIFETKFQVDKVNFHMFDVGGQRDERRKWIQCFNDVTAIIFVVDSSDYNRLQEALNLFKSIWNNRWLRTISVILFLNKQDLLAEKVLAGKSKIEDYFPEFARYTTPEDATPEPGEDPRVTRAKYFIRDEFLRISTASGDGRHYCYPHFTCAVDTENARRIFNDCRDIIQRMHLRQYELL
modifications: MINI GS399
B16: mini-Gs/o_16: mini-Gs/o1 chimera construct 16; SEQ ID NO:139 (protein)
chain: B15 chain with C248V, R249T, Q253I, R254A, H256N, Q259G, Y260C, E261G, L263Y
modifications: miniGs/o_16
B17: Mini-Gs/i148: mini-Gs/i1 chimera construct 48; SEQ ID NO:112 (protein)
chain: B15 chain with C248V, R249T, Q253I, R254K, H256N, Q259D, Y260C, E261G, L263F
modifications: Mini-Gs/i148

Assay: Thermostability of GDP-bound mini G proteins by differential scanning fluorimetry (DSF)
Assay type: physicochemical
Details: 1 mM GDP, SYPRO-orange, no receptor
Experimental: SYPRO-orange (15 μl) was added from a 20× stock solution to give a final concentration of 2×. Samples were mixed and 2×50 μl aliquots (duplicates) were transferred to 0.2 ml PCR tubes (Qiagen). Thermostability measurements were performed using a Rotor-Gene Q (Qiagen). Samples were equilibrated for 90 s at 25° C. before ramping from 25 to 99° C. at 4 s/° C. The melting temperature (Tm), corresponding to the inflection point of the curve, was derived from analysis using the Rotor-Gene Q software. Tm values were calculated as the mean±SEM from three independent experiments.
For constructs see FIGS. 29 and 35-37. Expression, purification and stability measurements by differential scanning fluorimetry (DSF) of the mini-G proteins as well as the non-lipidated Gβ1γ2 dimer, were performed following the protocols described in Example 1. The stability of mini-G proteins was also determined in detergent using native DSF (NanoTemper Prometheus). Mini-G proteins (2 mg/ml) in 50 mM HEPES pH 7.5 (KOH), 20 mM MgCl2, 50 mM NaCl, 1 μM GDP were mixed with either no detergent (control), 0.1% LMNG or 0.1% DDM. Samples were incubated on ice (minimum 30 min) prior to heating on the Prometheus (20% excitation, 15° C.-85° C., rate of 2.0° C./min) and the onset of scattering determined.
With B1 the “Mini Gs basal Tm (GDP-bound state, DSF)” value was 66.5 ± 0.0 (n = 3) ° C.
For B2, the “Mini Gs basal Tm (GDP-bound state, DSF)” value was 68.7 ± 0.0 (n = 3) ° C.
With B3 the “Mini Gs basal Tm (GDP-bound state, DSF)” value was 72.5 ± 0.0 (n = 3) ° C.
With B4 the “Mini Gs basal Tm (GDP-bound state, DSF)” value was 67.1 ± 0.0 (n = 3) ° C.
With B5 the “Mini Gs basal Tm (GDP-bound state, DSF)” value was 72.5 ± 0.0 (n = 3) ° C.
For B6, the “Mini Gs basal Tm (GDP-bound state, DSF)” value was 64.7 ± 0.1 (n = 3) ° C.
In the case of B7, the “Mini Gs basal Tm (GDP-bound state, DSF)” value is reported as 66.6 ± 0.1 (n = 3) ° C.
For B8, the “Mini Gs basal Tm (GDP-bound state, DSF)” value was 70.7 ± 0.0 (n = 3) ° C.
With B9 the “Mini Gs basal Tm (GDP-bound state, DSF)” value was 70.3 ± 0.0 (n = 3) ° C.
In the case of B10, the “Mini Gs basal Tm (GDP-bound state, DSF)” value is reported as 70.3 ± 0.0 (n = 3) ° C.
In the case of B11, the “Mini Gs basal Tm (GDP-bound state, DSF)” value is reported as 65.4 ± 0.1 (n = 3) ° C.
With B12 the “Mini Gs basal Tm (GDP-bound state, DSF)” value was 50.1 ± 0.1 (n = 3) ° C.
In the case of B13, the “Mini Gs basal Tm (GDP-bound state, DSF)” value is reported as 60.6 ± 0.1 (n = 3) ° C.

Same assay, conditions: DSF
For B14, the “less stable than mini-Gs by” value was 17 °C.

Same assay, conditions: mini-G protein alone, GDP-bound
In the case of B14, the “Stability measured by DSF” value is reported as 48 °C.
For B15, the “Stability measured by DSF” value was 71.6 ± 0.0 °C.
In the case of B16, the “Stability measured by DSF” value is reported as 69.0 ± 0.1 °C.
In the case of B17, the “Stability measured by DSF” value is reported as 72.1 ± 0.1 °C.

Same assay, conditions: mini-G protein alone, GDP-bound; listed as Gs/i1 46
With B14 the “Stability measured by DSF” value was 47.8 ± 0.3 °C.
